Assay results reported in patent publication US20120178908A1 (Novo Nordisk, published 2012).

Tests used:
hTLT-1 ECD-HPC4 M91A = target: T1, hTLT-1 ECD-HPC4 M91A (human, UniProt Q86YW5 16-162); assay: SPR (ProteOn), mAb captured by anti-hFc, 100 nM mutant
T1 construct: As m27; also called Ala mutant 24
T1 chain: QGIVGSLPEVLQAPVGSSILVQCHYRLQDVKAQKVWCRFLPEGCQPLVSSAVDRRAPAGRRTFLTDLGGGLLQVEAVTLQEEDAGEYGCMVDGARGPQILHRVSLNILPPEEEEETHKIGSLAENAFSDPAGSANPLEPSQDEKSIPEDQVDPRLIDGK
Method: Anti-hFc Polyclonal antibody was immobilized onto separate flow cells of a GLM sensor chip using a 1:1 mixture of 0.4 M EDAC [1-ethyl-3-(3-dimethylaminopropyl) carbodiimide hydrochloride] and 0.1 M Sulfo-NHS [N-hydroxysulfosuccinimide]. Each anti-body was diluted in 10 mM sodium acetate pH 5.0 to a concentration of […], and was immobilized to an individual flow cell at 30 μl/min for 240s. The antibodies were immobilized to flow cells A1-A6 (horizontal direction). After immobilization, the active sites on the flow cell were blocked with 1 M ethanolamine. The final immobilization level of capture antibody typically ranged from approximately 9,000 to 10,000 RU in one experiment. Capture of the anti-TLT1 antibodies 0197-0000-0023, 0197-0000-0051, 0197-0000-0061 and 0197-0000-0062 was conducted by diluting to […] into HBS-EP buffer (10 mM HEPES, 150 mM NaCl, 3 mM EDTA, 0.05% surfactant P20, pH 7.4) and injected at 30 μl/min for 60s in vertical direction, creating interspot reference points with only anti-human Fc antibodies. The final capture level of test antibodies typically ranged from approximately 200 to 300 RU in one experiment. […] Each hTLT-1 ECD-HPC4 protein was diluted to 100 nM, based on the calculated average Mw, into HBS-EP buffer and injected at 30 μl/min for 240s. […]

[1] = target: T2, TLT1 (human TLT-1, reagent of the SPR studies, source NN) (human, UniProt Q86YW5 16-162, limits assumed); assay: SPR (Biacore), mAb captured via anti-human Fc mAb, TLT1 as analyte
T2 sequence: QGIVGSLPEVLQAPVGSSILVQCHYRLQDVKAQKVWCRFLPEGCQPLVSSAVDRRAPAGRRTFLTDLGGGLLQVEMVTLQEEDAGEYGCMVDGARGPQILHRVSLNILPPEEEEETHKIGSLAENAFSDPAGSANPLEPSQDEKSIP
Method: The mAbs of interest were either immobilized directly to a CM5 chip or by capture via a human Fc capture mAb immobilized to a CM5 chip.
Capture via human Fc mAb: Human Fc mAb was immobilised to approx 10.000 RU. The mAb of interest was added (approx 100 nM). Two-fold dilutions of TLT1 from 200 nM to 0.2 nM were tested. Running and dilution buffer: 10 mM HEPES, 150 mM, 0.005% p20, pH 7.4. Regeneration was obtained in 3 M MgCl₂

B1: mAb 0061 HC2; LC2 (antibody, V domains shown)
VH: EVKLLESGGGLVQPGGSLKLSCAASGFDFSRYWMTWVRQAPGKGLEWIGEINPDSSTINYNPSLKDKFIISRDNAKNTLYLQMSEVRSEDTALYYCASGVFTSWGQGTLVTVSA
VL: DVVMTQTPLSLPVSLGDQASISCRSSQSLVHRNGNTYFHWALQKPGQSPKLLIYKVSNRFSGVPDRFSGSGSGTDFTLKISRVEAEDLGVYFCSQSTHVPYTFGGGTKLEIKR
notes: also called 0197-0000-0061; 0012HC.T60N + 0012LC.C36A
Does B1 bind (hTLT-1 ECD-HPC4 M91A)?
Result: binds

And the Kd [1]?
The Kd was 3.75 nM.

What about the koff [1] of the same binder?
The koff was 0.0035 s⁻¹.

And the kon [1]?
Its kon is 932000 M⁻¹ s⁻¹.
